This is an account of results in paper PMC10817852, “Vascular injury activates the ELK1/SND1/SRF pathway to promote vascular smooth muscle cell proliferative phenotype and neointimal hyperplasia”.

The target in series [1] is T1, SRF (1-266) (UniProt P11831 1-266).
T1 sequence: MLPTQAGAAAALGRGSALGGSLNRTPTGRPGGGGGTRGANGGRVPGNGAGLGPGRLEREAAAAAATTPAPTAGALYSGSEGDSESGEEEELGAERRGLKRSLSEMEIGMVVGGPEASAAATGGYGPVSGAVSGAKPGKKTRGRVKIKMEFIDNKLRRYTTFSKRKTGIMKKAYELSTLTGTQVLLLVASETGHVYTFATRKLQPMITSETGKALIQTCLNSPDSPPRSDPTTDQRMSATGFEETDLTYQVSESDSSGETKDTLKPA
As to the kind of experiment: EMSA; unlabeled probe (200-fold) diminished binding; Beyotime GS009 chemiluminescent EMSA kit binding buffer (composition, salt and pH not given), 20 fmol biotin probe, 0.1 ug protein, 10 min at room temperature. Particulars: protein: recombinant; (GST fusions described); chain copies: 2; label: biotin; blunt. For orientation: Mobility shift assays separate free from complexed probe on a gel.

The target of series [2] is T2, SND1 (1-660) (UniProt Q78PY7 1-660).
T2 sequence: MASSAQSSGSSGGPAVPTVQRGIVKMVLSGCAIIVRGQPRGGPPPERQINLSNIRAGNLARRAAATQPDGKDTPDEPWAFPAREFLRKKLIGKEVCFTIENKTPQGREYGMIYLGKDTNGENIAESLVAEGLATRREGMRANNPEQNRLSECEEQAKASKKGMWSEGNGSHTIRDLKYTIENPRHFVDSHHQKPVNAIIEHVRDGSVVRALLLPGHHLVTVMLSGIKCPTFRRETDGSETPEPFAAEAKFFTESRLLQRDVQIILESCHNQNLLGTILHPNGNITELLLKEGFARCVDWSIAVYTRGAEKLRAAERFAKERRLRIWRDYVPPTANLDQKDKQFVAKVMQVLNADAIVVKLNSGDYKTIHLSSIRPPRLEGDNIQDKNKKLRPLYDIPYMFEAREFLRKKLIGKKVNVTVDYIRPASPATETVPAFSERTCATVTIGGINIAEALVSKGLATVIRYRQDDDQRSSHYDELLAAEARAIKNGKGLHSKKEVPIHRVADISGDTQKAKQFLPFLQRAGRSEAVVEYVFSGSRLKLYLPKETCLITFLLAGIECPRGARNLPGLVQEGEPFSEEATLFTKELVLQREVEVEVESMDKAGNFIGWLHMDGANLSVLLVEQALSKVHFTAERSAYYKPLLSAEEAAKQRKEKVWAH
As to the kind of experiment: EMSA; SND1 alone; Beyotime GS009 chemiluminescent EMSA kit binding buffer (composition, salt and pH not given), 20 fmol biotin probe, 0.1 ug protein, 10 min at room temperature. Conditions: protein: recombinant; label: biotin; blunt.

B1: Fos CArG probe (dsDNA)
DNA 1: CCATATTAGGCCATATTAGGCCATATTAGGCCATATTAGGCCATATTAGG
DNA 2: CCTAATATGGCCTAATATGGCCTAATATGGCCTAATATGGCCTAATATGG
For B1, the binding result in series [1] was “binds”; in series [2], “no binding”.
